As a reminder, the IC50 is the concentration needed to halve the response being measured. Read a low IC50 as inhibition by little substance. As a reminder, the Ki is a dissociation constant, usually derived from enzyme kinetics or from competition with a known ligand. High values mean weaker binding, low ones tighter binding.

Consider one substance from paper PMC6422423, “Constitutively active BRS3 is a genuinely orphan GPCR in placental mammals” (PLoS Biology, 2019).

For assay [1], the target named is spotted gar bombesin receptor subtype-3 (spotted gar (Lepisosteus oculatus)). Put plainly: radioligand binding; displacement of 50 pM [125I]-Tyr-NMB by unlabeled peptide on disaggregated transfected HEK293 cells; 1 h at 21°C; 24.5 mM HEPES pH 7.4, 98 mM NaCl; bound tracer separated by centrifugation.
Chain of spotted gar bombesin receptor subtype-3 (spotted gar (Lepisosteus oculatus)) (main, as listed by the source): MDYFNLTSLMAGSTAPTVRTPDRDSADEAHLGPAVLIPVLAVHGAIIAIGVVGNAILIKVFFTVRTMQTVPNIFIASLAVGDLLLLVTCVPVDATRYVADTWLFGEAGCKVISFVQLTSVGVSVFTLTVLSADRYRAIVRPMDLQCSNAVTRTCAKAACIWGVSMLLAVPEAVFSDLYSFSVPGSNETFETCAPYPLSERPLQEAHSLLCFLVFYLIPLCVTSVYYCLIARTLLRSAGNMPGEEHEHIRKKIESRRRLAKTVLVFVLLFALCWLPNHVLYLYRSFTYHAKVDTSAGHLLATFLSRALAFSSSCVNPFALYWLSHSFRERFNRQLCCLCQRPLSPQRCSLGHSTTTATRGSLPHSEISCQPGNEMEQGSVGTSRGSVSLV
The target in assay [2] is aardvark bombesin receptor subtype-3 (aardvark (Orycteropus afer)). Described as above.
Chain of aardvark bombesin receptor subtype-3 (aardvark (Orycteropus afer)) (P32247 other isoform, or with tags, fused parts or gaps): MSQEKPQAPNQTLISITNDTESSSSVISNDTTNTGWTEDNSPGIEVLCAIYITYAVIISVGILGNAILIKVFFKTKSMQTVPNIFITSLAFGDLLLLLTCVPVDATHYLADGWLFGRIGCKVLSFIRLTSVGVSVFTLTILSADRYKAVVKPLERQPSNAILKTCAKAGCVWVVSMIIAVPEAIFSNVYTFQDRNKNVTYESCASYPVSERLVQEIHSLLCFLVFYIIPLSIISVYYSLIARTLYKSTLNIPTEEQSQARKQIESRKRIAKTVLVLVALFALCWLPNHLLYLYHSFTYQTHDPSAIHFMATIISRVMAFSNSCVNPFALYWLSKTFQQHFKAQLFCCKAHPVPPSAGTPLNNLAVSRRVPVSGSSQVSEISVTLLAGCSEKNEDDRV
Assay [3] has as its target chicken bombesin receptor subtype-3 (chicken (Gallus gallus)). The assay is described as above.
The target of assay [4] is turtle bombesin receptor subtype-3 (turtle (Chrysemys picta)). Described as above.
Chain of turtle bombesin receptor subtype-3 (turtle (Chrysemys picta)) (main, as listed by the source): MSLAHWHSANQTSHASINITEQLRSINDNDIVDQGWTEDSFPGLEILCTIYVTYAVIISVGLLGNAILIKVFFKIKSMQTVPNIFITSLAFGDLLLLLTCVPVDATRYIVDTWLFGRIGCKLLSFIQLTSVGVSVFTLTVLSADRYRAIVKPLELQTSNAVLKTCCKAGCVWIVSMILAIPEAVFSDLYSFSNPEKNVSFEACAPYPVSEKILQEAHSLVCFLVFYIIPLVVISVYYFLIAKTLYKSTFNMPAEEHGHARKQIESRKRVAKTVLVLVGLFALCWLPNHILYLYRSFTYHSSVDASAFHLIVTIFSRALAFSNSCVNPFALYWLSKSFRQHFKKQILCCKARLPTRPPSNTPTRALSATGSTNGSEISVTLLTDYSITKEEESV
In assay [5] the target is spotted gar bombesin receptor subtype-3 (spotted gar (Lepisosteus oculatus)). Put plainly: radioligand binding; displacement of 50 pM [125I]-Tyr42-GRP by unlabeled peptide on disaggregated transfected HEK293 cells; 1 h at 21°C; 24.5 mM HEPES pH 7.4, 98 mM NaCl; bound tracer separated by centrifugation.
Assay [6] addresses chicken bombesin receptor subtype-3 (chicken (Gallus gallus)). The description is as above.
Assay [7] has as its target turtle bombesin receptor subtype-3 (turtle (Chrysemys picta)). The assay is described as above.

For “neuromedin B, unlabeled ligand peptide of the radioligand binding assays”, the concentration for half-maximal inhibition (IC50) came out at 2.65 nM in assay [1]; 2.26 nM in assay [3]; 2.82 nM in assay [4]; 1.74 nM in assay [5]; 1.35 nM in assay [6]; 1.14 nM in assay [7]. In assay [2], this substance registered a Ki above 1000 nM.
